Test results published in patent US20020197702A1.

Columns and labels:
Assay in all cases: cell-based or functional assay
[1] = target: affinity purified membrane derived caspase-3 from 697 cell heavy membranes (human) (UniProt P42574)
[2] = target: r-caspase-3 (His)6 (human) (UniProt P42574)
[3] = target: T1, 697 Bcl-2 HM (caspase-1 treated) caspase (human) (UniProt P42574)
T1 sequence 1: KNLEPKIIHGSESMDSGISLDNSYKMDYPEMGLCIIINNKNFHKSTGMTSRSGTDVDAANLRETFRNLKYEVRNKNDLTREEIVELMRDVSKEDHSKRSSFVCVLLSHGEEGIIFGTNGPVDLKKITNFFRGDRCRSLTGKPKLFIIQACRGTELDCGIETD
T1 sequence 2: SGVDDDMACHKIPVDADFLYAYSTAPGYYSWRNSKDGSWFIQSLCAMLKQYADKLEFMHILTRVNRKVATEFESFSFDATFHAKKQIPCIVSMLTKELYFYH

[4] = target: T2, 697-neo HM (caspase-1 treated) caspase (human) (UniProt P42574)
T2 sequence 1: T1 sequence 1
T2 sequence 2: T1 sequence 2

[5] = target: 697-neo HM (spontaneous activity) caspase (human) (UniProt P42574)

Protein p35 (early p35 protein from Autographa californica nuclear polyhedrosis virus) (from UniProt P08160 1-299)
IC50, inhibition of DEVD-AMC cleavage activity [1]: 0.074 nM
IC50, inhibition of DEVD-AMC cleavage activity [2]: 0.041 nM

YVAD-ald (peptide)
IC50, inhibition of DEVD-amc cleavage [3]: > 10000 nM
IC50, inhibition of DEVD-amc cleavage [4]: > 10000 nM
IC50, inhibition of DEVD-amc cleavage [5]: > 10000 nM
